The results in this text go back to patent US11661676B2, “Cellular high throughput encapsulation for screening or selection” (Universität Zürich, priority 2012, dated 2023).

This data set can be described thus: Thermostability assay of ADRA1A derived clones ([3H]prazosin binding after heat challenge). The conditions noted are these: PBS-E(DCC), no ligand during solubilization, even at 20° C. The class given is physicochemical. The method, then:
Detergent-stable ADRA1A library members were selected with FACS using 200 nM BODIPY FL prazosin. (FIG. 8a) 21 selected clones were expressed individually, solubilized and assayed for ligand binding activity after 3 hours in PBS-E(DCC). (FIG. 8b) The top 4 receptors were solubilized in PBS-E(DCC) for 3 h at 20° C. in the absence of ligand. Solubilized receptors were captured from the supernatant with streptavidin paramagnetic beads at 4° C. for 1 h. ADRA1ADCCA3 (black circles), ADRA1ADCCG4 (grey open squares), ADRA1ADCCD7 (black crosses) or ADRA1ADCCD8 (grey open circles) coated beads were either treated with 20 nM [^3H]prazosin for 1 h before being thermally challenged for 30 min at increasing temperatures or […] treated with 20 nM [^3H]prazosin after heating in the absence of ligand. […] Parallel measurements were taken for every receptor in the presence of 10 μM unlabeled prazosin as a competitor to determine the specific […] signal. Data points are plotted as the mean of duplicate measurements, 100% represents the signal measured after heating at 20° C. for 30 min. Error bars indicate the standard error of the mean.
For ADRA1A derived clones, expression and sonication was conducted as above, but the pellet was solubilized in PBS-E(DCC) containing 50 mg/ml chicken lysozyme at 20° C. with vigorous shaking for 3 h in the absence of ligand. […]

B1: wild-type ADRA1A: wild-type alpha 1A adrenergic receptor, parental receptor (protein, UniProt P35348 1-466, looked up)
Alpha-1A adrenergic receptor: MVFLSGNASDSSNCTQPPAPVNISKAILLGVILGGLILFGVLGNILVILSVACHRHLHSVTHYYIVNLAVADLLLTSTVLPFSAIFEVLGYWAFGRVFCNIWAAVDVLCCTASIMGLCIISIDRYIGVSYPLRYPTIVTQRRGLMALLCVWALSLVISIGPLFGWRQPAPEDETICQINEEPGYVLFSALGSFYLPLAIILVMYCRVYVVAKRESRGLKSGLKTDKSDSEQVTLRIHRKNAPAGGSGMASAKTKTHFSVRLLKFSREKKAAKTLGIVVGCFVLCWLPFFLVMPIGSFFPDFKPSETVFKIVFWLGYLNSCINPIIYPCSSQEFKKAFQNVLRIQCLCRKQSSKHALGYTLHPPSQAVEGQHKDMVRIPVGSRETFYRISKTDGVCEWKFFSSMPRGSARITVSKDQSSCTTARVRSKSFLQVCCCVGPSTPSLDKNHQVPTIKVHTISLSENGEEV
For the molecule B1, the “ligand binding signal when solubilized in the absence of ligand” value is “no significant fluorescence signal was obtained”. The “ligand binding signal when solubilized in the absence of ligand” value (listed as ADRA1A) is given as “No significant signal could be measured”.
